Data reported in patent publication JP2021042960A (dated 2021).

Key:
ヒトCLDN6タンパク質 = biological target: T1, ヒトCLDN6タンパク質 (human, UniProt P56747 1-220); assay: immunohistochemistry on paraffin sections of HEK293T cells expressing the CLDN
T1 construct: whole, on cells; Expressed with Venus in HEK293T cells; formalin-fixed paraffin sections of cell pellets
T1 sequence (looked up): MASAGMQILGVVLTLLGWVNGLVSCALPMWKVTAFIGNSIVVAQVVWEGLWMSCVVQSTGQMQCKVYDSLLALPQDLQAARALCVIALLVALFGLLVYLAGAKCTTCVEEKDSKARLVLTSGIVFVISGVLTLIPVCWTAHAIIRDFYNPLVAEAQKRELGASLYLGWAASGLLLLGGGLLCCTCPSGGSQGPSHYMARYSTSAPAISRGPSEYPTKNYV

ヒトCLDN9タンパク質 = biological target: T2, ヒトCLDN9タンパク質 (human, UniProt O95484 1-217); assay: as above
T2 construct: whole, on cells; Expressed with Venus in HEK293T cells; formalin-fixed paraffin sections of cell pellets; also called CLDN9
T2 sequence (looked up): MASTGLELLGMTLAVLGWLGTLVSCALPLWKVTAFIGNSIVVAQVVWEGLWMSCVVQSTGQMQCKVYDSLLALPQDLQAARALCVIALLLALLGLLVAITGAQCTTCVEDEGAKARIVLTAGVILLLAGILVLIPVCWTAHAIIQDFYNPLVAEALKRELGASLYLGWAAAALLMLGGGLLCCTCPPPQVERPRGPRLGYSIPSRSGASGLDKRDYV

ヒトCLDN4タンパク質 = biological target: T3, ヒトCLDN4タンパク質 (human, UniProt O14493 1-209); assay: as above
T3 construct: whole, on cells; Expressed with Venus in HEK293T cells; formalin-fixed paraffin sections of cell pellets
T3 sequence (looked up): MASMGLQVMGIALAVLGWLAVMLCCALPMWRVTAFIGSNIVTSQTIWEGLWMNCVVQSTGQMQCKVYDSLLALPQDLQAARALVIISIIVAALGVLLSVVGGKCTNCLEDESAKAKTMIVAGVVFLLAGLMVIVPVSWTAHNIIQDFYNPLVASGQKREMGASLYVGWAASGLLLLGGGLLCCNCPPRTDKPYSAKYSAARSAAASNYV

ヒトCLDN1タンパク質 = biological target: T4, ヒトCLDN1タンパク質 (human, UniProt O95832 1-211); assay: as above
T4 construct: whole, on cells; Expressed with Venus in HEK293T cells; formalin-fixed paraffin sections of cell pellets
T4 sequence (looked up): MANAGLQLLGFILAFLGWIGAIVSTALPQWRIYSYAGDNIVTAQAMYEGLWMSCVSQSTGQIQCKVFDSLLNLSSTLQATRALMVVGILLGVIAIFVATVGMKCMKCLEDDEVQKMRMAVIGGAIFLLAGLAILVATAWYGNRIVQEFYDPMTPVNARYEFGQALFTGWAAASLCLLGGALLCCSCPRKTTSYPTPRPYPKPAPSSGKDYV

ヒトCLDN5タンパク質 = biological target: T5, ヒトCLDN5タンパク質 (human, UniProt O00501 1-218); assay: as above
T5 construct: whole, on cells; Expressed with Venus in HEK293T cells; formalin-fixed paraffin sections of cell pellets
T5 sequence (looked up): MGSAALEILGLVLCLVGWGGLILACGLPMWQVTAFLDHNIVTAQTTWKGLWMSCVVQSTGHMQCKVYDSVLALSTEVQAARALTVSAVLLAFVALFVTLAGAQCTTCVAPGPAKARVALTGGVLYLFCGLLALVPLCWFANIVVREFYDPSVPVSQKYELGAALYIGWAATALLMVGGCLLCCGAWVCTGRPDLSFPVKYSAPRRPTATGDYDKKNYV

ヒトCLDN15タンパク質 = biological target: T6, ヒトCLDN15タンパク質 (human, UniProt P56746 1-228); assay: immunohistochemistry on paraffin sections of CLDN-expressing cell pellets and of patients' malignant pleural mesothelioma tissue
T6 construct: Expressed in HEK293T cells from a plasmid that also expresses Venus; 228 residues, four-pass membrane protein; also called クローディン15; WT
T6 sequence: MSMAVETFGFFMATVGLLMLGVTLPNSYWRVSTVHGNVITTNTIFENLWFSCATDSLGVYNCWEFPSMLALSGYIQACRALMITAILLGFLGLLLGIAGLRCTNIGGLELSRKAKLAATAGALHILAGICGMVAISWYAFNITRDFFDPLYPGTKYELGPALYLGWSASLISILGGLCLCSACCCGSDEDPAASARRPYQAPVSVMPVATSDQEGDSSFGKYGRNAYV

B1: ラット抗ヒトCLDN15モノクローナル抗体クローン2C11 (antibody, V domains shown)
VH: AVQLVESGGGLVQPKESLKISCAASGFTFSNAAMYWVRQAPGKGLEWVARIRTKPNNYATYYADSVKGRFTISRDDSKSMVYLQMDNLKTEDSAMYYCTAPAYYFGYWGQGVMVTVSS
VL: DVVLTQTPPTLSATIGQSVSISCRSSQSLLHSNGNTYLHWLLQRPGQSPQLLIYLVSRLESGVPNRFSGSGSGTDFTLKISGVEAEDLGVYYCVQGTHAPWTFGGGTKLELK
notes: Rat monoclonal antibody from a hybridoma, used as culture supernatant and detected with anti-rat IgG-HRP; also called 2C11抗体; 抗CLDN15モノクローナル抗体(2C11)
**Q.** Does B1 bind (ヒトCLDN6タンパク質)?
**A.** Result: no binding

**Q.** Does B1 bind (ヒトCLDN9タンパク質)?
**A.** Result: no binding

**Q.** Does B1 bind (ヒトCLDN4タンパク質)?
**A.** Result: no binding

**Q.** Does B1 bind (ヒトCLDN1タンパク質)?
**A.** Result: no binding

**Q.** Does B1 bind (ヒトCLDN5タンパク質)?
**A.** Result: no binding

**Q.** Does B1 bind (ヒトCLDN15タンパク質)?
**A.** Result: binds
